Laboratory results taken from US9689040B2, “Selective inhibitors of tumor-initiating cells” (Children's Medical Center Corporation, priority 2011, dated 2017).

B1: NM_194324 (nucleic acid, listed as Homo sapiens)
DNA: AGCACTGCAGGGCTCTGGGCGGGAAGGCTAACCTGGTGCGGAGCCAGCCTGGGTCTCAGCCCCGCGTACGGCCTTTCACGAGTCTTCAAGCCTTCAGGCTTTCTTCTAGTCAAGATGAGTGATAAACCAGACTTGTCGGAAGTGGAGAAGTTTGACAGGTCAAAACTGAAGAAAACTAATACTGAAGAAAAAAATACTCTTCCCTCAAAGGAAACTATCCAGCAGGAGAAAGAGTGTGTTCAAACATCATAAAATGGGGATCTCCTCCAAAGAGCAGATTTCAGCATTGCCTGACAGTCTTGGTTTTAGGCTTGTTTTTTTGTAAACCTGTGTGTTTGTAGAGATTTCAGACATCTTCTGATTTCTTCTCACCTATATTCCCTGGTTAAGAGGTCAGGGGTAGTGAATGTTTCCTTAAGTTCCTTTTTAAACTTCCCATTGGTATGTAAATTCCAAATGGCAGATGCTGTCAATAACCTTGCCATGGATGACCTTTGTGTAGGTAGTCCTTGCACCTCATGCAGGATAAGCCAATTTTAACTTTCTACAATGGGTGCCTCAATAGTTTCATAATCTTCATGAAGTTGCATCCTTTGGCAGCTTCTTACAGTTTATTTTCACTTCCAATGTAGCAATAAAATAATAAATATAATCGTTGTTGTCTGAAAAAAAAAAAAAAAAAA
B2: TMEM14B (nucleic acid, listed as Homo sapiens)
DNA: TTTCTCCCCGCCCTGCCGCGGCCCCGGGGCGCAGCGCGCACGCAATCGCGTTTCCGGAGAGACCTGGCTGCTGTGTCCCGCGGCTTGCGCTCCGTAGTGGACTCCGCGGGCCTTCGGCAGATGCAGGCCTGGGGTAGTCTCCTTTCTGGACTGAGAAGAGAAGAATGGAGAAGCCCCTCTTCCCATTAGTGCCTTTGCATTGGTTTGGCTTTGGCTACACAGCACTGGTTGTTTCTGGTGGGATCGTTGGCTATGTAAAAACAGGCAGCGTGCCGTCCCTGGCTGCAGGGCTGCTCTTCGGCAGTCTAGCCGGCCTGGGTGCTTACCAGCTGTATCAGGATCCAAGGAACGTTTGGGGTTTCCTAGCCGCTACATCTGTTACTTTTGTTGGTGTTATGGGAATGAGATCCTACTACTATGGAAAATTCATGCCTGTAGGTTTAATTGCAGGTGCCAGTTTGCTGATGGCCGCCAAAGTTGGAGTTCGTATGTTGATGACATCTGATTAGCAGAAGTCATGTTCCAGCTTGGACTCATGAAGGATTAAAAATCTGCATCTTCCACTATTTTCAATGTATTAAGAGAAATAAGTGCAGCATTTTTGCATCTGACATTTTACCTAAAAAAAAAAAGACACCAAATTTGGCGGAGGGGTGGAAAATCAGTTGTTACCATTATAACCCTACAGAGGTGGTGAGCATGTAACATGAGCTTATTGAGACCATCATAGAGATCGATTCTTGTATATTGATTTTATCTCTTTCTGTATCTATAGGTAAATCTCAAGGGTAAAATGTTAGGTGTTGACATTGAGAACCCTGAAACCCCATTCCCTGCTCAGAGGAACAGTGTGAAAAAAAATCTCTTGAGAGATTTAGAATATCTTTTCTTTTGCTCATCTTAGACCACAGACTGACTTTGAAATTATGTTAAGTGAAATATCAATGAAAATAAAGTTTACTATAAATAATAAAAAAAAAAAAAAAAAA

Legend:
BPLER cells [1] = assay: Genome-wide siRNA lethality screen (primary screen), CellTiterGlo viability; assay type: cell-based, human
HMLER cells = assay: as above; assay type: cell-based, human
BPLER cells [2] = assay: Secondary (cherry-pick) screen with the 4 individual siRNAs of each pool

Molecule	Ratio (BPLER cells [1]; R, BPLER versus HMLER, primary screen)	Fold_HMLER (HMLER cells; primary screen, siRNA pool, HMLER cells)	Cherry Score (BPLER cells [2]; validation screen with individual siRNAs of each pool)	Ratio BPLER/HMLER (BPLER cells [1]; ratio of Fold_BPLER to Fold_HMLER)	Ratio BPLER/HMLER (BPLER cells [1]; ratio of fold viability BPLER/HMLER)	MAD BPLER (BPLER cells [1]; siRNA pool against the gene, MAD score of viability in BPLER cells)	Fold BPLER (BPLER cells [1]; siRNA pool against the gene, fold viability in BPLER cells)	MAD_HMLER (HMLER cells; primary screen, siRNA pool against the gene, HMLER cells, MAD score)	Fold_HMLER (HMLER cells; primary screen, siRNA pool against the gene, HMLER cells, fold viability)	MAD HMLER (HMLER cells; siRNA pool against the gene, MAD score of viability in HMLER cells)	Fold HMLER (HMLER cells; siRNA pool against the gene, fold viability in HMLER cells)	Cherry_Score (BPLER cells [2]; secondary cherry-pick screen, 4 individual siRNAs of each pool)	Cherry Score (BPLER cells [2]; secondary screen with the 4 individual siRNAs of each pool)
B1	0.74	0.87	1	–	–	–	–	–	–	–	–	–	–
B2	–	–	–	0.71	0.71	−1.99	0.636	−0.56	0.90	−0.56	0.90	1	1
